From article PMC6179307 (2018) come the findings set out here.

The chains are these.
B1: RPT-6::VC155 [C. elegans] / ELT-2::VN173 [C. elegans] (parent complex)
chain 1: MAPPASTASSADPSKPTAQKLTEESDEKTLRKYFSTKVDDAQQKVADKSQNVRRLQAQRNELNTKVRMLKEELQQLHEQGSYVGEVSKAMDKKKVLVKVHPEGKYVVDVDKSIDINSLNTGARVALRADSYALHKLLPNKVDPLVSLMMVEKVPDSTYEMVGGLDKQIKEIKEVIELPVKHPELFDALGIAQPKGVLLFGPPGTGKTLLARAVAHHTECTFIRVSGSELVQKFIGEGARMVRELFVMAREHAPSIIFMDEIDSIGSSRVEGSSGGDSEVQRTMLELLNQLDGFEATKNIKVIMATNRIDILDPALLRPGRIDRKIEFPAPDEKARADILKIHSRKMNLMRGINMAKIAEQIPGASGAEVKSVCTEAGMFALRERRIHVTQEDFEMAVGKVMQKDSEKNMSIKKLWK
chain 2: MDNNYNDNVNGWAEMEPSQPMGGLRLPTQNMDPPEQNNESQLSELPRMKIDNDYASPIERQSVITSGTNNYEPKVETVTSFFHTGIDYSNFGMLDQTTMQPFYPLYSGIPVNTLGTFSGYTNSIYDKPSLYDPSIPTINIPSTYPTVAPTYECVKCSQSCGAGMKAVNGGMMCVNCSTPKTTYSPPVAYSTSLGQPPILEIPSEQPTAKIAKQSSKKSSSSNRGSNGSASRRQGLVCSNCNGTNTTLWRRNAEGDPVCNACGLYFKLHHIPRPTSMKKEGALQTRKRKSKSGDSSTPSTSRARERKFERASSSTEKAQRSSNRRAGSAKADRELSTAAVAAATATYVSHADLYPVSSAAVTLPDQTYSNYYQWNTAATAGLMMVPNDQNYVYAATNYQTGLRPADNIQVHVMPVQDDETKAAARDLEAVDGDS

In the assay the parent is B1. The assay is described as follows: bimolecular fluorescence complementation (BiFC) in vivo, quantified with Copas Biosort; three independent experiments combined, minimum of 399 animals in each case; fluorescence observed twelve hours after heat shock; parent: 750; read off a plot.
With chain 1 K206R, the response was around 390 Fluorescence/TOF.
